From paper PMC8463877 (2021) come the findings set out here.

The target in assay [1] is T1, α-synuclein amyloid fibrils (unlabeled) (UniProt P37840 1-140). The assay is described as follows: 10 °C.
Assay [2] has as its target T1, α-synuclein amyloid fibrils (unlabeled). The experiment in a line: 30 °C.
Assay [3] shares this target. The assay is described as follows: 7 °C.
Assay [4] has the same target. The experiment in a line: 37 °C.
Assay [5] shares this target. The assay is described as follows: 17 °C.

A value given as a limit tells only on which side of the number the result lay.

B1: GFP-labeled αB-crystallin (αB-c-TEV site-GFP-His tag) (natural protein)
chain: MDIAIHHPWIRRPFFPFHSPSRLFDQFFGEHLLESDLFPTSTSLSPFYLRPPSFLRAPSWFDTGLSEMRLEKDRFSVNLDVKHFSPEELKVKVLGDVIEVHGKHEERQDEHGFISREFHRKYRIPADVDPLTITSSLSSDGVLTVNGPRKQVSGPERTIPITREEKPAVTAAPKK
Turning to B1, the Kd (in general, the concentration at which binding is half-saturated) in assay [1] is 12.3 µM; in assay [2], 0.0575 µM; in assay [3], 45.3 µM; in assay [4], below 0.0103 µM; in assay [5], 6.1 µM.
